According to article PMC4047056:

Target: Kv2.1 subunit (unlabeled) (human) (UniProt Q14721)

- midpoint of the voltage dependence of inactivation, V1/2, of whole-cell currents in HEK293 cells co-expressing Kv2.1 and Kv6.4 (Kv2.1 alone: −22.6 mV): -59.3 mV
B1: Kv6.4 subunit (unlabeled) (natural protein)
chain: MPMPSRDGGLHPRHHHYGSHSPWSQLLSSPMETPSIKGLYYRRVRKVGALDASPVDLKKEILINVGGRRYLLPWSTLDRFPLSRLSKLRLCRSYEEIVQLCDDYDEDSQEFFFDRSPSAFGVIVSFLAAGKLVLLQEMCALSFQEELAYWGIEEAHLERCCLRKLLRKLEELEELAKLHREDVLRQQRETRRPASHSSRWGLCMNRLREMVENPQSGLPGKVFACLSILFVATTAVSLCVSTMPDLRAEEDQGECSRKCYYIFIVETICVAWFSLEFCLRFVQAQDKCQFFQGPLNIIDILAISPYYVSLAVSEEPPEDGERPSGSSYLEKVGLVLRVLRALRILYVMRLARHSLGLQTLGLTVRRCTREFGLLLLFLAVAITLFSPLVYVAEKESGRVLEFTSIPASYWWAIISMTTVGYGDMVPRSVPGQMVALSSILSGILIMAFPATSIFHTFSHSYLELKKEQEQLQARLRHLQNTGPASECELLDPHVASEHELMNDVNDLILEGPALPIMHM
